Drawing on paper PMC4325230 (Stem Cell Reports, 2015), this text covers Kd for one molecule.

Broadly, the Kd is a measure of binding affinity in units of concentration. The low end stands for tighter binding, the high end for weaker binding.

The target of the assay is EGF receptor (UniProt P00533 25-645). The experiment in a line: MST.

B1: EGFL7 (natural protein, UniProt Q9UHF1 24-273, looked up)
chain: YRPGRRVCAVRAHGDPVSESFVQRVYQPFLTTCDGHRACSTYRTIYRTAYRRSPGLAPARPRYACCPGWKRTSGLPGACGAAICQPPCRNGGSCVQPGRCRCPAGWRGDTCQSDVDECSARRGGCPQRCVNTAGSYWCQCWEGHSLSADGTLCVPKGGPPRVAPNPTGVDSAMKEEVQRLQSRVDLLEEKLQLVLAPLHSLASQALEHGLPDPGSLLVHSFQQLGRIDSLSEQISFLEEQLGSCSCKKDS
B1 returned a Kd of 384 ± 76.5 nM.
